Data from the supplement of paper PMC12764529.
± gives the half width of the 95% confidence interval.

Key:
[1] = folding stability dG unfold from trypsin proteolysis; higher = more stable
Outline: (§1)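 Digests were run with trypsin and chymotrypsin at 11 concentrations in threefold dilutions, plus a no-protease condition, on designed mini-proteins in a PA-tagged cDNA display construct. The mini-proteins were under 80 residues, had no cysteine, and were kept only when AlphaFold2 dimer inter-PAE was above 15. After sequencing, Bayesian fitting of the counts gave K50, from which unfolding free energy was derived against a sequence-predicted unfolded-state K50 and a shared folded-state K50, per protease or combined.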

[2] = folding stability dG unfold from chymotrypsin proteolysis; higher = more stable
Outline: as §1

[3] = folding stability dG unfold (combined trypsin and chymotrypsin); higher = more stable
Outline: as §1

| Sequence | folding stability dG unfold [1] [kJ/mol] | folding stability dG unfold [2] [kJ/mol] | folding stability dG unfold [3] [kJ/mol] |
| --- | --- | --- | --- |
| SAGGSAGGSWVRDADGKPIPFKIDSVETKEENNPNGNRYYEIEARFPDNGKEFKATIPADDIKSAGGSAGGS [r12_823_TrROS] | -2.31 ± 1.09 | 2.2 ± 0.837 | 1.04 ± 0.46 |
| SAGGSAGGSYKIDKIEVQPPPGGYYQATIEVEQVDPENGNPQRQEQEIPVPANDPKQIKDFLKSAGGSAGGS [r12_691_TrROS] | -2.19 ± 0.795 | 1.58 ± 0.669 | 0.727 ± 0.92 |
| SAGGSAGGSYTVETSPVPPGGLLKTYTSPDGVVTTTLYSPDGTVGETTTTPVPPVVPPDPAAAASAGGSAGG [r6_239_JUSTAS] | -0.28 ± 0.314 | 5.55 ± 0.222 | 3.85 ± 0.46 |
| SAGGSAGGSYYPIEDPNGMKIWVEPDPDNGMYRIRIQFPEGKKVERTFPPGMPLDDIPIKIKDSAGGSAGGS [r12_261_TrROS] | 2.88 ± 0.393 | -0.186 ± 1.59 | 1.82 ± 1 |
| SAGGSAGGTAEQIREIVEQLFRKRGMEPKKIEIKRVERNGDKVTIEVEWRWDNGRKRPRNIQIPSAGGSAGG [r6_841_TrROS] | 3.02 ± 0.711 | 6.96 ± 0.502 | 4.95 ± 0.711 |
| SAGGSAGGTFEFFFPDGLYFTVEFRIVEMHPNPGNGQMHMRMEATIKIIPLPPPPPPPKDPGDKSAGGSAGG [r6_939_TrROS] | 11.3 ± 0.364 | 18 ± 0.502 | 16 ± 0.837 |
| SAGGSAGGTIIIEVDTREDALEAARALAEALLPPGYRVEIVSVEEVDGRVYVAIEVRPVPEEELSAGGSAGG [r6_72_TrROS_Hall] | 10.1 ± 0.502 | 13.6 ± 0.326 | 13.3 ± 0.502 |
| SAGGSAGGTIPSDYSVKELKVGGKKYVIVRYPDGIVELYSVEGNKKTLLRTVDTDPNASVSISGSAGGSAGG [r6_476_JUSTAS] | 7.26 ± 0.184 | 11.2 ± 0.167 | 9.97 ± 0.406 |
| SAGGSAGGTLKELIDNITRVDPENGKQRMRIPGGAEIEINPEEGQIKIRYYHPGKPQEITLPLPSAGGSAGG [r6_793_TrROS] | 1.92 ± 1.05 | 3.25 ± 1 | 2.73 ± 1.3 |
| SAGGSAGGVISEEEIEAKAEEAKAEAIAAGLESKEVTITSPSGKVYKITVDVNSITIEKSPAAGSAGGSAGG [r6_270_JUSTAS] | 3.68 ± 0.368 | 3.11 ± 0.368 | 3.48 ± 0.669 |
| SAGGSAGGVLRMVRRALKNGKNRPIVIYVPEPEQRNFIKWLKDEWPGIKIKVVPPDQMPPNQIISAGGSAGG [r6_87_TrROS] | 5.93 ± 0.138 | 5.49 ± 0.285 | 6.13 ± 0.393 |
| SAGGSAGGVVLEVEIPYESEEEAREKAEEVLKELGLPESAKITKIEFYPGPGEKKSVKVYIKLESAGGSAGG [r6_284_JUSTAS] | 8.03 ± 0.251 | 7.24 ± 0.0753 | 7.65 ± 0.247 |
| SAGGSAGGWIPPEMARNIAKTLRDKGWPVEDIEVEREPNGWVTVDVDIQYPDGKKRKYPIQIPYSAGGSAGG [r6_762_TrROS] | -1.84 ± 0.92 | 0.947 ± 0.962 | 0.229 ± 0.711 |
| SAGGSAGGWITPDAAKEFADKWGFDDVNVEVLDVDPNNNYVRVKVTARNPKNGNERPIGEFWFPSAGGSAGG [r6_699_TrROS] | 2.45 ± 0.234 | 6.1 ± 0.188 | 5 ± 0.276 |
| SAGGSAGGWREIKIYVPPGMPLEEIKDLIKEFFPGYKVEIDEIEREDNYVKATIRIQPLPPGDFSAGGSAGG [r6_623_TrROS] | 12.9 ± 0.385 | 11.8 ± 0.167 | 12.4 ± 0.297 |
| SAGGSAGGWRIKIMPMGGKKKKIPIDSPEEIIDKIQKEAKEDGLPGNVRITVEYNGQKRTFTIRSAGGSAGG [r6_532_TrROS] | 5.91 ± 0.669 | -0.851 ± 2.51 | 2.75 ± 0.837 |
| SAGGSAGIKAVLNLGDKPVLVLIEPLPDGSFPVIAIFADDGSKVEKVIPASDIGELLSLDPDKLTFSAGGSA [r15_629_TrMRF] | 3.59 ± 0.146 | 0.233 ± 1.09 | 2.51 ± 0.753 |
